# B1: (His)6-PFA0660w (natural protein)
# chain: AEGNKNFFFNKDNGVFGKSSMDYYTLLGVDKGCSEDDLRRAYLKLAMKWHPDKHVNKGSKVEAEEKFKNICEAYSVLSDNEKRVKYDLFGMDALKQSGFNSSNFQGNISINPLEVFTKAYSFYNKYFSKSSGAGNHNIFTHIKNLYPLRNDFSEDESSYNDVEEYEVPLYVTLEDLYNGCTKTLKVTRKRYDGCYLYYEDYFINVDIKQGWNNGTKITFHGEGDQSSPDSYPGDLVLVLQTKKHSKFVRKSRDLYYRHIITLEQSLTGFDFVIKSLDNRDIHIQIDEVVKPDTKKVIKNEGMPYSRDPSIRGNLIVEFDIIYPNTIKKEQKKLIKEIFKESY
# B2: (His)6-Hsj1a (natural protein, UniProt P25686-2 1-277, looked up)
# chain: MASYYEILDVPRSASADDIKKAYRRKALQWHPDKNPDNKEFAEKKFKEVAEAYEVLSDKHKREIYDRYGREGLTGTGTGPSRAEAGSGGPGFTFTFRSPEEVFREFFGSGDPFAELFDDLGPFSELQNRGSRHSGPFFTFSSSFPGHSDFSSSSFSFSPGAGAFRSVSTSTTFVQGRRITTRRIMENGQERVEVEEDGQLKSVTINGVPDDLALGLELSRREQQPSVTSRSGGTQVQQTPASCPLDSDLSEDEDLQLAMAYSLSEMEAAGKKPADVF
# notes: Control Hsp40; also called DNAJB2a
# Columns and labels:
# Conditions in all cases: both partners purified
# [1] = molecular target: T1, HSPA1A-(His)6 (human, UniProt P0DMV8 1-641); assay: SPR; Hsp70s amine-coupled to a GLC chip (ProteOn XPR36); PFA0660w 200-1000 nM as analyte in PBST pH 7.4 with 1 mM ATP; 60 μl/min, 90 s contact, 300 s dissociation; separate fits of association and dissociation, KD calculated from the rate constants
# T1 construct: human Hsp70 (HSPA1A); also called human Hsp70; HSPAIA
# [2] = molecular target: (His)6-PfHsp70-x (Plasmodium falciparum); assay: as above
# [3] = molecular target: T2, (His)6-PfHsp70-1 (Plasmodium falciparum, UniProt Q8IB24 1-677); assay: as above
# T2 construct: PfHsp70-1, parasite-resident Hsp70 of Plasmodium falciparum
# [4] = molecular target: T1, HSPA1A-(His)6; assay: SPR; Hsp70s amine-coupled to a GLC chip (ProteOn XPR36); BSA, Hsj1a or PFA0660w at 1 μM as analyte in PBST pH 7.4, with and without 1 mM ATP; read qualitatively
# T1 sequence (P0DMV8 whole entry): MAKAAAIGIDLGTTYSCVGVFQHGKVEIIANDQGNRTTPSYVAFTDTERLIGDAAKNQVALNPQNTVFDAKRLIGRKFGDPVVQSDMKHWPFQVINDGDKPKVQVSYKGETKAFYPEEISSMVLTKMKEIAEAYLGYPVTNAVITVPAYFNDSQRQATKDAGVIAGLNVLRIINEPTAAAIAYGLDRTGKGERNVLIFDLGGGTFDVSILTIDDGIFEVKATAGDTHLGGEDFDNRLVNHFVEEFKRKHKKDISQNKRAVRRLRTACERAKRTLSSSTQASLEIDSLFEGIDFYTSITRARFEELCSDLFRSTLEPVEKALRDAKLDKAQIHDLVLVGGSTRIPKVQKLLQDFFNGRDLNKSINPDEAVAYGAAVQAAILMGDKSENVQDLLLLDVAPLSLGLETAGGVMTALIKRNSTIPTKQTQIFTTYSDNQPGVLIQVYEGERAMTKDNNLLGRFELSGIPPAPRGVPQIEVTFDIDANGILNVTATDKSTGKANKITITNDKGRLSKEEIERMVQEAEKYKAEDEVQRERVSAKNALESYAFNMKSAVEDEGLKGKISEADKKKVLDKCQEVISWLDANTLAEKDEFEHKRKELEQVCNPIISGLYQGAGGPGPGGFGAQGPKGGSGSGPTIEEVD
Binder,Kd [1],Kd [2],Kd [3],binding result [4]
B1,64 nM,37 nM,251 nM,–
B2,–,–,–,binds
